Patent US20040170601A1, “Method of improving the growth performance of an animal” (priority 2001, published 2004)
Values joined by “and” are separate entries in the source; they are usually repeats but may differ in a detail not shown here. Equal values may be shown once. “Also recorded” adds a separate entry of the source.

How the values were obtained:
[1] = Example 5: repeat growth performance trial of IL-5 with normal, reduced and no antibiotics; format: in vivo, pigs
Experimental: This trial repeats the evaluation of IL-5 to improve growth performance and/or immunity of pigs by comparing the growth rate and health of male and female weaner pigs (from 28 days old: Week 0 of the trial) through the weaner (Weeks 0-6), grower (Weeks 6-13) and finisher (Weeks 13-19) stages to slaughter (Week 19), which were administered with recombinant porcine cytokine IL-5, and saline was used as a control, with and without standard weaner medicated water and feed, and reduced antibiotics, in a commercial piggery environment.
This trial (weaner/grower/finisher trial) was designed to investigate the effect of providing IL-5 and the controls (saline) from weaning to slaughter with normal, reduced and no antibiotics in water supply. The experiment evaluates the capacity of IL-5 for replacing antibiotics under commercial pig rearing conditions and to determine the effect of continuous administration of the cytokines throughout the life of the pig on performance and carcass characteristics.
The experiment was undertaken in a commercial environment where the pigs were weaned at 28 days of age. All injections were 1 ml. There were 16 pigs per treatment, 8 males and 8 females per treatment. The overall weight of pigs in each treatment was similar at the start of the experiment.
−means no antibiotic supplements in water or feed throughout trial.
0.5 means single antibiotics used throughout trial at normal dose
+ means normal antibiotic regime used throughout trial IL-5+ means IL-5 administered during Weaner/Grower/Finisher periods.
IL-5+p means IL-5 administered during Weaner period only.
A. Saline injection, 1 ml IM neck muscle.
B. 100 μg IL-5 injection, 1 ml IM neck muscle.
Weaner stage: 2 injections per week,
Grower and finisher stage 1 injection per week.
Pigs were weaned and weighted at the start of the experiment (D0, W0) and weekly until the end of the weaner period (W6), at the end of the grower (W13) and finisher (W19) stages and once during the grower (W9) and finisher (W16) stages. Blood and sera samples were collected at the start (before treatments) and end of the weaner, grower and finisher periods. Blood and sera were taken prior to treatment injection. Haematology (totals and differentials) was performed.
At the start of the trial, the mean weight and the variance of all groups was equalised to reduce confounding influence of starting weight. Thus, the positive effects on growth were due to treatment effects.

eosinophils [2] = assay: Example 2: high dose and multiple dose IL-5 on eosinophil numbers in blood; format: in vivo, pigs; conditions: rec.IL-5 IM 100 μg x1/x2/x4 or 500 μg x1
Experimental: This trial compared 2 doses of recombinant IL-5 (100 μg/500 μg) and compared multiple injections (x1/x2/x4) of one dose (100 μg) to elevate eosinophil numbers.
The experiment was conducted using medicated feed Barastoc EziWean 150 then Bunge Grolean CREEP ad libitum in an experimental environment (PC2 containment facilities). Blood total and differential counts were performed using a CellDyn 3700 haematology machine.
(§1) 8 hrs later, bleed for haematology

eosinophils [3] = assay: Example 1: recombinant IL-5 and IL-5 DNA on eosinophil numbers in the blood of pigs; format: in vivo; conditions: recombinant IL-5 100 μg IM on 1 or 2 consecutive days, up to 12 days after treatment
Experimental: This trial compared the effects of recombinant porcine IL-5 protein and DNA delivered porcine IL-5 on eosinophil numbers in the blood of pigs.
6 pigs per treatment, approximately 7-8 weeks of age (weaners), mean weight of approx. 15 kg.
The experiment was conducted using medicated feed Barastoc EziWean 150 then Bunge Grolean CREEP ad libitum in an experimental environment (PC2 containment facilities).
Recombinant IL-5 was expressed in E. coli and purified using a GST tag system. (See, for example, Smith, D. B and Johnson, K. S. (1988), Gene, 67:31-40). IL-5 was cleaved from the GST tag, purified and tested in bioassays to confirm activity.
IL-5 cDNA (including the signal sequence) was cloned into the pCI DNA vector. DNA was purified using the Qiagen Giga Prep kit (Qiagen Inc. USA).
Total white cells and eosinophils were counted from slides.
Pre-bleed for haematology and dose with all treatments (1, 2, 3, 4, 5 as shown above)
as §1

eosinophils [4] = assay: Example 11: IL-5 and IL-3 on eosinophil production; format: in vivo, pigs
Description: The aim of this example was to determine if the effects of IL-3 and IL-5 act synergistically to increase eosinophil levels and antibody production.
As IL-3 stimulates the proliferation of pre-active B cells prior to the effects of IL-5, it was believed that administration of both IL-3 and IL-5 would have a greater impact on eosinophil production than the administration of either cytokine alone. An experiment was undertaken using pigs raised under clean PC2 conditions with raised floors. There were 5 treatments with 6 pigs per treatment. Pigs were 5-6 weeks of age. The animals were injected intramuscularly on days 0, 3, 7 and 10 of the experiment with either recombinant cytokines or saline. The treatments include IL-5 and IL-3 alone and given either together at the same time at different sites or to the same animal but with IL-3 being administered one week before IL-5. The treatments were as follows:
Group 3—100 μg IL-3+100 μg IL-5 (separate sites)
The pigs were bled 4 times per week for the first 2 weeks and once per week for the following 2 weeks and haematology measured using a CellDyn machine. Sera were collected also each week and tested for antibody levels.

eosinophils [5] = assay: Example 4: % eosinophils of WBC in blood; format: in vivo, pigs; conditions: blood the day after treatment, end of weaner period
Description: Blood and sera samples collected at the start (before treatments) and end of the weaner period. Blood and sera were taken prior to injecting samples.
Blood was taken the day after IL-5 and saline treatments and represent a single time point only. […] As a general observation IL-5 plus medication had higher eosinophils numbers than the IL-5 without antibiotics.

[6] = 2nd trial, normal medication, weaner period
[7] = normal antibiotics, IL-5 during weaner, grower, finisher periods

B1: interleukin 5 (protein, UniProt Q9MYM5 22-134, looked up)
Interleukin-5: VENTMNRLVAETLTLLSIHRTLLIGDGNLMISTPVHTNHQLCIEEVFQGIDTLKNQTARGDAVEKLFQNLSLIKEYIDRQKKNCGGERWRVTQFLDYLQVFLGVINTEWTMES
notes: recombinant porcine IL-5 protein expressed in E. coli; + / − = with / without antibiotic medicated feed and water, +p = weaner period only
increase in average weights over medicated saline control [1, 6]: 7% | increase in weight gain over medicated saline control [1, 6]: 11% | total group weights, weaner period ([1]; no, reduced or normal antibiotics): beneficial effects on total weights, especially with reduced or no antibiotic supplements | average weight increases, weaner-only vs continuous IL-5 ([1]; normal antibiotics): no significant differences between groups given IL-5 during the weaner or continuously throughout the weaner, grower and finisher periods | change of final average weight vs saline control [1, 7]: ~−1.5% | decrease of final average weight vs saline control [1, 7]: 1.3 kg | average weights ([1]; normal antibiotics, W6 to W13): consistently higher average weights than the saline control (with normal antibiotics) from the end of the weaner period (W6) to the end of the grower period (W13) | average weight higher than IL-5+p ([1]; normal antibiotics, Week 13): 1.3 kg | average weight higher than saline control ([1]; normal antibiotics, Week 13): 4.7 kg | average weight lower than IL-5+p ([1]; normal antibiotics, Week 19): 2 kg | average weight lower than saline control ([1]; normal antibiotics, Week 19): 1.3 kg | average weight gains during the Weaner period ([1]; vs respective saline controls, with or without antibiotic supplements): consistently higher average weight gains during the Weaner period compared to the respective saline controls with or without antibiotic supplements in water or feed | average weight gains during the Weaner period ([1]; vs saline controls without antibiotic supplements): consistently higher average weight gains during the Weaner period | average percentage eosinophil of WBC over 11 days (area under the curve) (eosinophils [2]): increased eosinophil numbers in blood and higher dose and multiple doses were statistically significant and 4 injections of 100 μg (Days 0, 1, 4, 7) being more effective than a single injection of a higher single dose (500 μg) | percentage eosinophils of white blood cells (WBC) (eosinophils [3]): transient (several days) | percentage eosinophils of white blood cells (WBC) (eosinophils [3]; listed as recombinant IL-5): sustained increase in eosinophil numbers in blood over several days; also recorded: two doses being more effective than one dose; also recorded: more effective than DNA in increasing eosinophil numbers | eosinophil percentage of WBC relative to the original value (eosinophils [4]; after 4 injections): approximately 10 times | eosinophils as a percent of white blood cells (eosinophils [4]; single cytokine 100 μg IM days 0, 3, 7, 10): significant increase in eosinophil levels; also recorded: dramatically increased circulating eosinophil cells | % eosinophil cells of WBC (eosinophils [5]): substantial effect on % eosinophil cells of WBC in both the medicated and un-medicated groups
